Publication PMC3399532 (Prion, 2012)

Biological target: truncated MoPrP(89–230) (mouse, UniProt P04925 89-230)
Assay: ELISA

B1: mouse (Mo) Dpl (26–155) (domain or fragment)
chain: ARGIKHRFKWNRKVLPSSGGQITEARVAENRPGAFIKQGRKLDIDFGAEGNRYYAANYWQFPDGIYYEGCSEANVTKEMLVTSCVNATQAANQAEFSREKQDSKLHQRVLWRLIKEICSAKHCDFWLERG
**Q.** Does B1 bind?
**A.** binds
